Experimental data from the supplement of paper PMC12764529.
± gives the half width of the 95% confidence interval.

Assays:
[1] = folding stability dG unfold from trypsin proteolysis; higher = more stable
Method in brief: (§1)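 Sequencing followed digestion of designed mini-proteins with trypsin and chymotrypsin, each at 11 concentrations in threefold dilutions together with a no-protease condition. The mini-proteins were under 80 residues, had no cysteine, sat in a PA-tagged cDNA display construct, and were kept only if AlphaFold2 dimer inter-PAE was above 15. From the counts, Bayesian fitting gave K50, and unfolding free energy was derived against a sequence-predicted unfolded-state K50 and a shared folded-state K50, per protease or combined.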

[2] = folding stability dG unfold from chymotrypsin proteolysis; higher = more stable
Method in brief: as §1

[3] = folding stability dG unfold (combined trypsin and chymotrypsin); higher = more stable
Method in brief: as §1

Sequence	folding stability dG unfold [1]	folding stability dG unfold [2]	folding stability dG unfold [3]
SAGGSAGGSAGGGPDAVRQFPPPVNLSVEVTSYTSPSSSLSNGKPEKSTFTTLNPTAGVSAGGSAGGSAGGS [r10_877_JUSTAS]	0.0381 ± 0.13 kcal/mol	0.0744 ± 0.19 kcal/mol	0.139 ± 0.11 kcal/mol
SAGGSAGGSAGGGSFVLTRHTRTGLRRRVYFDPETGELTVELETGTESRTTLSPLSPDLSAGGSAGGSAGGS [r10_376_TrMRF]	-0.215 ± 0.2 kcal/mol	0.748 ± 0.064 kcal/mol	0.489 ± 0.058 kcal/mol
SAGGSAGGSAGGGSITITFKHPDGGEVTIEITPPEPTVRVTVTLPNGEKLEYEFDFVPASAGGSAGGSAGGS [r10_595_TrMRF]	3.24 ± 0.22 kcal/mol	3.68 ± 0.11 kcal/mol	3.58 ± 0.14 kcal/mol
SAGGSAGGSAGGGSMKEKKLTVGDKEIIVTYNPETGTATVKSPENSVSVFPLEELKKLLSAGGSAGGSAGGS [r10_1140_JUSTAS]	-1.25 ± 0.93 kcal/mol	0.741 ± 0.1 kcal/mol	0.318 ± 0.24 kcal/mol
SAGGSAGGSAGGGSMSITVPMSPEEGKKLAEEIKEKLKSEGNPVEVTVTIVSPTDPSLLSSAGGSAGGSAGG [r7_776_JUSTAS]	0.627 ± 0.04 kcal/mol	0.167 ± 0.066 kcal/mol	0.41 ± 0.17 kcal/mol
SAGGSAGGSAGGGSMTLTEVFVDPETGTRTVRTTTLYTLPNGTLTSTTTTTVEPLPGELSAGGSAGGSAGGS [r10_1258_JUSTAS]	1.51 ± 0.022 kcal/mol	1.87 ± 0.025 kcal/mol	1.76 ± 0.043 kcal/mol
SAGGSAGGSAGGGTAEELAKELEDLGYKVKLEPEGDYLLLTVTDPDNDKPYVILLDPETISAGGSAGGSAGG [r7_0_TrMRF]	1.25 ± 0.067 kcal/mol	0.776 ± 0.028 kcal/mol	0.991 ± 0.035 kcal/mol
SAGGSAGGSAGGGVEVLSAERRRIPETGLVLVVIREKEPLKPIVVLMPEEDAVVFLKHFSAGGSAGGSAGGS [r10_988_TrMRF]	0.14 ± 0.094 kcal/mol	0.92 ± 0.1 kcal/mol	0.703 ± 0.091 kcal/mol
SAGGSAGGSAGGGVVTLPDLKGLSEEELKALAEEIAKKLGLENVPLKLEFGEDGNLTLVLSAGGSAGGSAGG [r7_810_JUSTAS]	2.15 ± 0.077 kcal/mol	1.24 ± 0.054 kcal/mol	1.74 ± 0.11 kcal/mol
SAGGSAGGSAGGHYIRAEIEIKYEHPGNGQEQTMTIPIEIPIPPPPPVSAEDRAKQNGIGSAGGSAGGSAGG [r7_79_TrROS]	0.318 ± 0.084 kcal/mol	0.855 ± 0.041 kcal/mol	0.669 ± 0.065 kcal/mol
SAGGSAGGSAGGIGPEIVEAALIEAKEKVPEDEEVEILVRDPVTGEVLRLRIYPDRVELGSAGGSAGGSAGG [r7_44_TrMRF]	0.384 ± 0.11 kcal/mol	0.785 ± 0.14 kcal/mol	0.698 ± 0.19 kcal/mol
SAGGSAGGSAGGIKDVKITEFERHPENNWYEVKISIPNGKPVEIPMNPGQSAEDILDQISAGGSAGGSAGGS [r10_984_TrROS]	-0.418 ± 0.19 kcal/mol	0.651 ± 0.045 kcal/mol	0.421 ± 0.2 kcal/mol
SAGGSAGGSAGGIKLENPNGFEVYKSPDSMVEIEFVNPNGKPMRYIIQVDEPGEIKPYPVSAGGSAGGSAGG [r7_423_TrROS]	0.0628 ± 0.13 kcal/mol	0.0804 ± 0.23 kcal/mol	0.0566 ± 0.2 kcal/mol
SAGGSAGGSAGGIYPGPGNLLYFTGEDDYVKVIKITPPDNTIKIDIEIVPKGEATKIPYSAGGSAGGSAGGS [r10_257_TrMRF]	0.161 ± 0.059 kcal/mol	-0.331 ± 0.28 kcal/mol	-0.00595 ± 0.097 kcal/mol
SAGGSAGGSAGGKELEIVLYDKETNVLVTAKVRMENGKLTITEVKVEKVKPPKLPPGVKPSAGGSAGGSAGG [r7_276_TrROS_Hall]	1.48 ± 0.06 kcal/mol	2.44 ± 0.071 kcal/mol	2.14 ± 0.079 kcal/mol
SAGGSAGGSAGGKHKIPITNVHVSPPNGYIHVTIRFPGDGKPIEIHFPVPPGEPITIEISAGGSAGGSAGGS [r10_940_TrROS]	2.28 ± 0.14 kcal/mol	3.53 ± 0.27 kcal/mol	2.74 ± 0.2 kcal/mol
SAGGSAGGSAGGKIDRIQLHYNPGGNVYFRIYGPNGKPRYFMMPAEDLEDFPNAPIEIYPSAGGSAGGSAGG [r7_238_TrROS]	0.648 ± 0.04 kcal/mol	0.847 ± 0.11 kcal/mol	0.864 ± 0.096 kcal/mol
SAGGSAGGSAGGKIIVVKDKETGKYRVIIVDKKTKKTIVVEVDPNTTLEEALKKAKELLKSAGGSAGGSAGG [r7_138_TrROS_Hall]	3.05 ± 0.12 kcal/mol	3.97 ± 0.12 kcal/mol	3.52 ± 0.24 kcal/mol

Sequence	folding stability dG unfold [1]	folding stability dG unfold [2]	folding stability dG unfold [3]
SAGGSAGGSAGGKIKDIDVQQMPDGWYWVEIEIPDPNGEEVKITIMFPPGHSVDDALDQLSAGGSAGGSAGG [r7_54_TrROS]	1.01 ± 0.069 kcal/mol	1.03 ± 0.093 kcal/mol	1.04 ± 0.22 kcal/mol
SAGGSAGGSAGGKIKILKKNKTKEEIKKELAEKYNVKKIEIKPIKGNTYLVEIEVEPEESAGGSAGGSAGGS [r10_1219_TrMRF]	-0.364 ± 0.24 kcal/mol	0.634 ± 0.22 kcal/mol	0.292 ± 0.25 kcal/mol
SAGGSAGGSAGGKIKLTVTVDADGNATVTLEIEVESPEDKPFTIRLTLTFPLKDGESLTSAGGSAGGSAGGS [r10_763_TrMRF]	3.9 ± 0.29 kcal/mol	3.88 ± 0.12 kcal/mol	3.82 ± 0.17 kcal/mol
SAGGSAGGSAGGKIKPGQTVIFIELKITKQRDGPDGKRYMEFEIERIDIFRIPPGDNILSAGGSAGGSAGGS [r10_826_TrROS]	2.55 ± 0.068 kcal/mol	3.18 ± 0.13 kcal/mol	3.03 ± 0.13 kcal/mol
SAGGSAGGSAGGKILVITAKIEDIPEIIEAAKKLGIDSVIIDIPETKEKIIITKDSVKLISAGGSAGGSAGG [r7_564_TrMRF]	1.54 ± 0.057 kcal/mol	1.76 ± 0.089 kcal/mol	1.63 ± 0.14 kcal/mol
SAGGSAGGSAGGKITFAPKTTLLLTATIPVTVYSLHPDGTLTTETRSATITFTIPPELLSAGGSAGGSAGGS [r10_383_TrMRF]	2.4 ± 0.086 kcal/mol	4.1 ± 0.074 kcal/mol	3.64 ± 0.12 kcal/mol
SAGGSAGGSAGGKIYKKKNGTYKIIIYDKKTKKVYEIEIPVSKEDKPKILKEAKELAKKSAGGSAGGSAGGS [r10_379_TrROS_Hall]	0.609 ± 0.11 kcal/mol	1.49 ± 0.096 kcal/mol	1.17 ± 0.084 kcal/mol
SAGGSAGGSAGGKKIEIPGFEITKVEPLENDSVIAEGKFKNGKKYRILFLPNKVYINDESAGGSAGGSAGGS [r10_312_TrMRF]	0.335 ± 0.16 kcal/mol	0.44 ± 0.2 kcal/mol	0.357 ± 0.16 kcal/mol
SAGGSAGGSAGGKKIKIPKKVKVKVVKKKDGKLLVYLEKTGKVIELPVEDLKNITAEDLSAGGSAGGSAGGS [r10_709_TrROS_Hall]	0.976 ± 0.038 kcal/mol	-0.63 ± 0.3 kcal/mol	0.408 ± 0.094 kcal/mol
SAGGSAGGSAGGKKITIVMSAEEAEALAKALEDAGIDIDNLKIEVVKVEFPPALPAEDKSAGGSAGGSAGGS [r10_602_TrROS_Hall]	1.2 ± 0.029 kcal/mol	1.8 ± 0.051 kcal/mol	1.57 ± 0.074 kcal/mol
SAGGSAGGSAGGKKKFGFLILVKNKDDEKLYLVEVPEELSLEEFLPDQEIDEEVIKKAIGSAGGSAGGSAGG [r17_412_TrMRF]	0.823 ± 0.082 kcal/mol	0.665 ± 0.27 kcal/mol	0.724 ± 0.18 kcal/mol
SAGGSAGGSAGGKKKIKVELEVKEDGTIRMKATTEDGEEIETEIKVEKVEVTVFLPPEKSAGGSAGGSAGGS [r10_237_TrROS_Hall]	1.74 ± 0.26 kcal/mol	1.18 ± 0.23 kcal/mol	1.55 ± 0.28 kcal/mol
SAGGSAGGSAGGKKKKVKKKVTITIKLSAEEVAKLLKDLYPEKNIKIEENEDGSLSVTFTSAGGSAGGSAGG [r7_670_TrROS_Hall]	2 ± 0.098 kcal/mol	2.39 ± 0.041 kcal/mol	2.26 ± 0.11 kcal/mol
SAGGSAGGSAGGKKLRIKVKNKKTGKEIEIEIDVEDKTIEEIAKELAKKLNFEVTEIEPVSAGGSAGGSAGG [r7_590_TrROS_Hall]	2.2 ± 0.18 kcal/mol	2.9 ± 0.12 kcal/mol	2.74 ± 0.24 kcal/mol
SAGGSAGGSAGGKKLTFKAEIVSEEEIEINGKKYRIFKVKVTLPDGSKLTLTVIVELDDLSAGGSAGGSAGG [r7_846_TrROS_Hall]	2.83 ± 0.036 kcal/mol	4.22 ± 0.056 kcal/mol	3.84 ± 0.096 kcal/mol
SAGGSAGGSAGGKKPITLTVLVTDPDGYLLQRTTTLTLDEDTNELTATTTVTRIPLEDLSAGGSAGGSAGGS [r10_1225_TrROS_Hall]	0.684 ± 0.11 kcal/mol	1.97 ± 0.088 kcal/mol	1.6 ± 0.13 kcal/mol
SAGGSAGGSAGGKKTINVEIVKIEVTKNKKTNEYTVKIYIKDTGKTITLTVKPGDIIKISAGGSAGGSAGGS [r10_819_TrROS_Hall]	1.42 ± 0.064 kcal/mol	3.28 ± 0.1 kcal/mol	3.1 ± 0.21 kcal/mol
SAGGSAGGSAGGKKTITVPKGAVVRITYKNGEKKEVKAGETITIEDLPEDVKIEVVKVKKSAGGSAGGSAGG [r7_968_TrROS_Hall]	1.73 ± 0.06 kcal/mol	2.44 ± 0.03 kcal/mol	2.19 ± 0.094 kcal/mol
